Measured values: patent US20200262927A1 (OXFORD BIOTHERAPEUTICS, published 2020)

Tests used:
[1] = biological target: T1, Recombinant hCRTAM/Fc Chimera (R&D Systems, Catalogue 1695-CR) (human, UniProt O95727 18-286); experiment: Octet BLI, antibody captured on anti-human IgG Fc biosensors, hCRTAM/Fc chimera as analyte from 200 nM diluted 1:3, global 1:1 fit
T1 construct: also called human recombinant hCRTAM/Fc chimera; Fc part of the bought chimera not given
T1 sequence: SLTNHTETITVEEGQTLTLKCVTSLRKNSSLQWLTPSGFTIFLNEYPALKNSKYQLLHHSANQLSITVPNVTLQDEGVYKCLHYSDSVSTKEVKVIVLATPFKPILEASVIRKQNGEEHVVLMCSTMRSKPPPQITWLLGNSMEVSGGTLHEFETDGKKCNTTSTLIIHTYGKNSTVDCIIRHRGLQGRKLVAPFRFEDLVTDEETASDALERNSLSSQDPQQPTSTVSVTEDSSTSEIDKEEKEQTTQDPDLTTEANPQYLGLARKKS
Description: (§1) Anti-human IgG-Fc Capture (AHC) ForteBio biosensors were loaded with the test antibodies at a concentration of 1 μg/mL over 300 seconds.
(§2) The loaded biosensors were incubated with 5 concentrations of human recombinant hCRTAM/Fc chimera starting at 200 nM, which was serially diluted 1:3; a reference well contained kinetic buffer only (to correct for drift).
(§3) The data from all concentrations were fit using a global 1:1 curve fit for each sample. Where possible the kinetic association and dissociation rates and the KD values were determined.

[2] = biological target: T1, Recombinant hCRTAM/Fc Chimera (R&D …); experiment: Octet BLI, antibody captured on anti-human IgG Fc biosensors, hCRTAM/Fc chimera as analyte, global 1:1 fit
Description: as §1, §2, §3

B1: humanised 5A11 antibody (antibody, V domains shown)
VH: EVQLVESGGGLVQPGGSLKLSCAASGFTFSDAAMYWVRQASGKGLEWVARIRTKTNNYAAHYVESVKGRFTVSRDDSKNTVYLQMNSLKTEDTAMYYCTSVPQGTQDYWGQGTLVTVSS
VL: SYELTQPSSVSVSPGQTARITCSGDVLSKRYAQWSQQKPGQAIVSVIYKDSERPSGIPERFSGSSSGTTATLTISGAQVEDEADYYCLSTYADDNLPVFGGGTKLTVL
notes: Captured on anti-human IgG Fc biosensors, so it carried a human IgG Fc; also called humanized antibody 5A11
- Kd [1]: 0.439 nM
- koff [2]: 0.00011 s⁻¹
- kon [2]: 249000 M⁻¹ s⁻¹
